Test results published in the RNAGym collection of RNA variant scans (doi:10.7554/elife.80360).

B1: Hammerhead Ribozyme (parent)
chain: ACCGGAUGUGCUUUCCGGUCUGAUGAGUCCGUGAGGACGAAACAG

Variants of: B1
Test: self-cleavage, relative activity (ratio to wild type); higher = more cleavage; co-transcriptional

Variant	self-cleavage
A23C U28A	0.262
G25A C43U	0.341
U7G G10A	1.72
C2A G4A	0.322
C2U U19G	0.319
C38G C43A	0.456
U7G G25C	0.363
U19G U21C	0.471
A6U G45C	0.39
C16G G18C	0.376
U9G U21A	0.405
C2A G33C	0.888
A1G C11A	2.06
G8U G45U	0.826
G8A G35C	0.543
A23G C30A	0.305
A6C U13A	0.906
G5A A42G	0.387
U7C C38U	0.929
C3A A23U	0.28
C2U G5A	0.633
C30U C43U	0.546
G5C	0.669
G8A C38A	0.56

Variant	self-cleavage
G4U U21A	0.342
A1C U28G	0.302
A1C U28A	0.389
G5A G8C	0.954
G17C U24A	0.493
C29U G39A	0.406
U7C G10A	1.02
U32C G39A	0.317
A1G U24G	1.68
A1U A42U	0.279
U21A G22A	0.35
C3A C16G	0.438
A37G G45C	0.416
A40G A41G	0.346
G18A G22C	0.417
U19G U28G	0.355
U13C G39A	0.293
G4A U12A	0.589
U12A A44U	0.61
G39U A42C	0.353
C3A G17U	0.874
A23C U32G	0.383
G25U C43A	0.359
G18A G35U	0.594

Variant	self-cleavage
G31C G33A	1.08
G25C G39U	0.33
U21G G33A	0.704
C11U A40G	0.342
G27U A37G	0.501
A23C G33U	0.659
U12A G25U	0.331
U9C U32G	0.9
A23G A42G	0.324
G27A G31C	0.864
U9C U28G	0.808
U9C U28C	1.08
A6U U9C	0.654
G8A G22C	0.273
C15A C29U	0.753
A26C G33A	0.655
A6C U32G	0.477
U7G U21A	0.345
G25U A42G	0.246
C20G G25A	0.314
G33C G35A	0.701
C11G G33U	1.53
A34U A42G	0.258
U14A G35A	0.665

Variant	self-cleavage
U13A A26U	0.976
G4A U19C	0.276
U19C C43G	0.393
U28G C38U	0.858
C2U A23C	0.558
C11A U14C	1.17
G39C	0.455
A23U G35U	0.37
A23C G25U	0.298
G5U U32C	0.822
G5U C29G	0.434
C2U U7A	1.58
U13A C20A	0.446
G17C C43U	0.404
C3A C43G	0.261
C3U C11U	0.504
G4U C43A	0.272
U9C U14G	1.29
U9C U14A	0.872
U9C U14C	0.518
U19G G22C	0.308
A23U G27A	0.32
A6C A37G	0.333
A1G G8U	1.65

Variant	self-cleavage
U19G A41G	0.345
A26G C43G	0.31
C20G C38G	0.239
C3U A44U	0.592
G31C C43U	0.436
G31A G33A	0.887
A1C U9C	0.394
C29G G35A	0.637
C3G U24G	0.44
C3U A6C	0.437
C15A A41G	0.325
U7A A26C	0.311
G5C A34C	0.336
U19C U24C	0.682
C2G A26U	0.315
U28A U32C	0.626
A6U G36U	0.391
G35A G39C	0.346
C30A C43A	0.293
A6G U24G	0.777
U12C A26U	0.854
G4C U12C	0.513
G10U G36A	0.65
G4A U14G	0.542

Variant	self-cleavage
G22C C29G	0.266
U12C U21G	0.609
U24G G36C	0.452
G17A A44U	0.449
C2G A40C	0.352
C20G G35C	0.361
G33C C38A	0.493
G17U U24C	0.697
A41G G45U	0.407
C29A G31U	0.611
U7C U24C	1.24
G25C A41U	0.319
G25C A41G	0.359
U7C G33C	0.963
G4C G18A	0.303
U19C C29G	0.434
G25A C30A	0.369
C3G A41C	0.299
C2G A34U	0.347
G22C G25C	0.319
C3A G31C	0.791
C20A A40U	0.382
G33A G36C	0.58
C2A G25C	0.359

Variant	self-cleavage
A1U G25C	0.357
U21C C43U	0.487
C20U G31A	0.783
C20U G31U	0.718
G4A G35C	0.391
U12C G39U	0.317
U21A A41G	0.401
U14G U32G	1.01
G5U U12C	0.804
G4C G39A	0.326
C20U A26G	0.262
C2G G31A	0.43
U28G G33C	1.2
U12C A40U	0.379
C15U C16A	0.76
U7C A41C	0.34
U24A C38U	0.993
U32G G35U	0.603
C15A G39C	0.366
G25C A40G	0.447
G4U G36U	0.267
C2G U13G	0.332
G18C A23G	0.379
